Assay results published in IntAct's records for PubMed 20890284.

B1: TYRO protein tyrosine kinase-binding protein (Homo sapiens), O43914 (parent)
chain: MGGLEPCSRLLLLPLLLAVSGLRPVQAQAQSDCSCSTVSPGVLAGIVMGDLVLTVLIALAVYFLGRLVPRGRGAAEAATRKQRITETESPYQELQGQRSDVYSDLNTQRPYYK
B2: Hematopoietic cell signal transducer (Homo sapiens), Q9UBK5 (parent)
chain: MIHLGHILFLLLLPVAAAQTTPGERSSLPAFYPGTSGSCSGCGSLSLPLLAGLVAADAVASLLIVGAVFLCARPRRSPAQEDGKVYINMPGRG

Key:
[1] = variants of: B1; settings: with nkg2c_human KLRC2, P26717
nkg2c_human KLRC2, P26717, sequence (P26717 whole entry): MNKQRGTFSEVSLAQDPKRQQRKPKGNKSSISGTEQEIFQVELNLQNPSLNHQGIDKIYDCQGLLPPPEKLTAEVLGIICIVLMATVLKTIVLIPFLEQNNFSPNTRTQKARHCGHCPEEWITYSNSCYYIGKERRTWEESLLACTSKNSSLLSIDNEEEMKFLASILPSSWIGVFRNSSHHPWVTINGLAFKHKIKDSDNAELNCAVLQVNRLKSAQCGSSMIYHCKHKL

[2] = variants of: B1; settings: with ki2s3_human KIR2DS3, Q14952
ki2s3_human KIR2DS3, Q14952, sequence (Q14952 whole entry): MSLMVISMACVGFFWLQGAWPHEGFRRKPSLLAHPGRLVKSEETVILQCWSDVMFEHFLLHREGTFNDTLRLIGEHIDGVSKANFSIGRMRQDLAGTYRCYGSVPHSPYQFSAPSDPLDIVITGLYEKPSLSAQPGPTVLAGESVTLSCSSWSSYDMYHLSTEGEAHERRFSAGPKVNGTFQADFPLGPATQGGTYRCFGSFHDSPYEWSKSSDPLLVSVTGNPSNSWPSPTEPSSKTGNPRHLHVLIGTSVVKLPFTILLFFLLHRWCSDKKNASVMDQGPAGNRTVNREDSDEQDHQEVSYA

[3] = variants of: B2; settings: with nkg2d_human KLRK1, P26718
nkg2d_human KLRK1, P26718, sequence (P26718 whole entry): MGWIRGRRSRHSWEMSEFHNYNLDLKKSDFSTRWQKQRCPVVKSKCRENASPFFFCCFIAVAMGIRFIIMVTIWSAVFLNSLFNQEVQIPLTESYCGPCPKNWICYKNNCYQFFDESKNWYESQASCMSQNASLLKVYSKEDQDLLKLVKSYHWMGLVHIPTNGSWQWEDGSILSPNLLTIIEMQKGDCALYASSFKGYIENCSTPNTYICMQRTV

## A58F
[1]
  effect of a mutation on the interaction: decreasing interaction
[2]
  effect of a mutation on the interaction: decreasing interaction

## T54A
[1]
  effect of a mutation on the interaction: decreasing interaction
[2]
  effect of a mutation on the interaction: decreasing interaction

## MIHLGHILFLLLLPVAAAQTTPGERSSLPAFYPGTSGSCSGCGSLSLPLLAGLVAAAAVASLLIVGAVFLCARPRRSPAQEDGKVYINMPGRG
[3]
  effect of a mutation on the interaction: decreasing interaction
